Read-outs that look alike come from different tables or passages of the source.

Assay [1] addresses T1, recombinant human CFD mutant 1 (R157A, R207A), His-tagged (human, UniProt P00746 26-253).
T1 construct: positions are linear positions in the mature protein; also called rhCFD-mut1-His; Mut1
Nature of the assay: ELISA. (In general: In an ELISA, binding on a coated surface is turned into a signal by an enzyme label.)

In assay [2] the target is T2, human complement factor D purified from serum (human, UniProt P00746 26-253).
T2 construct: serum-purified (CompTech); also called hCFD-Comptech; CFD
T2 sequence (P00746 26-253): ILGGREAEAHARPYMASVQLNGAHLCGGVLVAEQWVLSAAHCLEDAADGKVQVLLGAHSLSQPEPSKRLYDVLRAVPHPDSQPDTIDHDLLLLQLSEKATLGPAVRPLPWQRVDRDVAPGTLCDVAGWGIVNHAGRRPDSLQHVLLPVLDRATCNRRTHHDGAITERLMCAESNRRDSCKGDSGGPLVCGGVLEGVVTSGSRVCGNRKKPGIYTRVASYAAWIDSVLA
The assay can be described thus: SPR MX96.

The target in assay [3] is T3, recombinant cynomolgus CFD, His-tagged (cynomolgus).
T3 construct: also called rcyCFD-His; recombinant Cyno-CFD
Nature of the assay: SPR MX96.

Assay [4] concerns the target T4, recombinant human CFD, His-tagged (human, UniProt P00746 26-253).
T4 construct: also called rhCFD-His
The assay can be described thus: SPR MX96.

Assay [5] has as its target T1, recombinant human CFD mutant 1 (R157A, …). Nature of the assay: SPR MX96.
The target of assay [6] is T2, human complement factor D purified from ….
For assay [7] the target is unchanged. The assay can be described thus: cell-based or functional assay.
For assay [8], the target named is T1, recombinant human CFD mutant 1 (R157A, …). The assay can be described thus: ELISA. This is another data set of the same source.
Assay [9] addresses T2, human complement factor D purified from …. This is another data set of the same source.
The target is the same in assay [10]. Nature of the assay: cell-based or functional assay. This is another data set of the same source.
The target of assay [11] is T1, recombinant human CFD mutant 1 (R157A, …). Nature of the assay: ELISA, Mut1 Binding, Bin 2.
Throughout, for CFD Enzymatic activity (% of Neg Ctrl): test concentration or dose not given here.

T1 sequence (P00746 26-253 R182A/R232A limits assumed): as the sequence (P00746 26-253) above, with R157A, R207A counted along it
T4 sequence (P00746 26-253 limits assumed): as the sequence (P00746 26-253) above

B1: KCD131 (antibody, V domains shown)
VH: QVQLQQSGPELVKPGASVKISCKASAYTFTDYYINWVKQRPGQGPEWIGWIFPGSNSTYSNEKFEVKATLTVDESSSTAYMLLSSLTSEDSAVYFCARLGYFGSSYHALDYWGQGTSVTVSS
VL: DIQMTQSPASLSVSVGETVTITCRASENIYSHLAWFQQKQGKSPRLLVYSATNLPDGVPSRFSGSGSGTQYSLKINILQSEDFGSYYCQHFWGTPWTFGGGTKLEIK
notes: chimeric
Regarding B1, the “Mut1 Binding (% wt)” value in assay [1] was determined as 80.7 % wt. In addition, the equilibrium dissociation constant (Kd) (usually the equilibrium constant for the complex coming apart) in [2] was 0.14 nM; in assay [3], 0.99 nM; in assay [4], 0.047 nM; in assay [5], 0.045 nM; in assay [6], 0.0342 nM. In addition, the “CFD Enzymatic activity (% of Neg Ctrl)” value in [7] is 65.9 % of Neg Ctrl.

B2: KCD122 (antibody, V domains shown)
VH: EVQLQQSGPELVKPGASVKISCKASGYTFTDYYKNWMRQRHGESLEWIGDINPNNGDANYNQKFKGKATLTVDKSSSTAYMELRSLTSEDSAVYFCAREGPSFAYWGHGTLVTVSA
VL: DVLMTQTPLSLPVSLGDQASISCRSSQTIVHSNGDTYLEWYLQKPGQSPNLLIYKVSNRFSGVPDRFSGSGSGTDFTLKISRVEAEDLGVYYCFQGSHVPPTFGGGTKLEIK
notes: chimeric
Regarding B2, in [8], the “Mut1 Binding (% wt)” value was 2.25 % wt. For the same molecule, the dissociation constant Kd in [2] stood at 1.4 nM; in [3], 1.9 nM; in [4], 0.95 nM; in assay [9] it was 0.162 nM. Besides, the “CFD Enzymatic activity (% of Neg Ctrl)” value in assay [10] was 17.3 % of Neg Ctrl. Besides, the binding result in assay [11] is “no binding”.

B3: KCD003 (antibody, V domains shown)
VH: EVQLQQSRPELVKPGASVKIFCKASGYTFTDYYMNWMRQRHGETLEWIGDINPNNGDPSYNQKFKDKATLTVDKSSSTASMELRSLTSDDSAVYYCAREGPSFAYWGQGTLVTVSA
VL: DVLMTQTPLSLPVSLGEQASISCRSSQTIVHSNGDTYLEWYLQKPGQSPNLLIYKVSNRFSGVPDRFSGSGSGTDFTLKISRVEAEDLGVYYCFQGSHVPPTFGGGTKLEIK
notes: chimeric
Take B3: in assay [8], the “Mut1 Binding (% wt)” value was 1.53 % wt. For the same molecule, the Kd in [2] amounted to 1.1 nM; in assay [3], 1.8 nM; in [4], 0.81 nM; in assay [9], 0.318 nM. Further, the “CFD Enzymatic activity (% of Neg Ctrl)” value in assay [10] was 19.6 % of Neg Ctrl. The binding result in [11] is “no binding”.

B4: KCD010 (antibody, V domains shown)
VH: EVLLQQSGPELVKPGASVKIPCKASGYTFTDYDMDWVKQSHGKSLEWIGHINPNNGGTIYNQKFKGKATLTVDKSSSTAYMELRSLTSEDTAVYYCGTGDFAYWGHGTLVTVSA
VL: QIVLTQSPAIMSVSPGEKVTLTCSASSSVSSSYLYWYQKKPGSSPKLWIYSTSNLASGVPARFSGSGSGTSYSLTISSMEAEDAASYFCHQWSSYPPTFGAGTKLELK
notes: chimeric
Take B4: the “Mut1 Binding (% wt)” value in assay [8] was 3.77 % wt. In addition, the dissociation constant (Kd) in assay [2] is 3.1 nM; in [3], 2.9 nM; in assay [4], 2.5 nM; in assay [9], 1.46 nM. Besides, the “CFD Enzymatic activity (% of Neg Ctrl)” value in [10] was 49.4 % of Neg Ctrl. In addition, the binding result in [11] is “no binding”.

B5: KCD220 (antibody, V domains shown)
VH: QVQLQQSGAELMEPGASVKLSCKATGYTFTGYWIEWVKQRPGHGLEWIGETLPGSDSNNYNEKFKGKATFTADTSSNTAYMQLSSLTTEDSAIYYCARDYSNYWYFDVWGTGTTVTVSS
VL: DIQMTQTTSSLSASLGDRVTISCRASQDISNYLNWYQQKPDGTVKLLIYYTSNLHSGVPSRFSGSGSGTDYSLTISNLEQEDIATYFCQQDSKHRTFGGGTKLEIK
notes: chimeric
B5: the “Mut1 Binding (% wt)” value in [1] came out at 74.1 % wt. Further, the Kd in assay [2] is 0.054 nM; in [3], 0.28 nM; in [4], 0.074 nM; in [5], 0.029 nM; in assay [6], 0.0639 nM. Moreover, the “CFD Enzymatic activity (% of Neg Ctrl)” value in assay [7] was 88.1 % of Neg Ctrl.
